# Test system: MS2 coat protein
# Assay: apparent KD of MS2 coat protein; designed switch direction (-1 OFF switch, 1 ON switch): -1; higher = weaker reporter binding
# Summary of the method: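 RNA switches sharing common flanks were transcribed by stalled E. coli RNA polymerase on Illumina chips. A doubling series of SNAP-549-labelled MS2 coat protein, from 0.7 or 1.5 nM to 3 µM, was applied in Tris-HCl pH 7.5 buffer with KCl, MgCl2, BSA, DTT, tRNA and Tween-20. Each step lasted 0.8–1.5 h at the bottom of the series and 10–20 min at the top. Normalised cluster fluorescence was curve-fitted, giving apparent KD as the per-design median over clusters.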
# [1] = Eterna round: R95, input ligand: FMN 200 uM
# [2] = Eterna round: R95, input ligand: microRNA oligo, concentration not stated
# [3] = Eterna round: R95, input ligand: none
# [4] = input ligand: microRNA oligo, concentration not stated
Sequence,apparent KD of MS2 coat protein [1],apparent KD of MS2 coat protein [2],apparent KD of MS2 coat protein [3],further results
"GUGGUGGGUUUUCCGAGUAACAUGAGGAUCACCCAUGUAGAAGUUGAAGGUAUCAAGCGAAUGGCUCGUCAAAUGUG [JR_SV3TOV1_Sub047] (puzzle: Sensor v3, turn-off variant 1)",42.3 nM,17.5 nM,46.4 nM,–
"UUGUUAUAUGUAGGAUAUGCGUAUUAUUAUUAUGCAGAAGGACAUGAGGAUCACCCAUGUAUGUUGUUGUUAUAUAUUAUAUAU [Title] (Eterna round: R96, puzzle: Exclusion NG 1)",–,–,–,apparent KD of MS2 coat protein [4]: 18.1 nM
UACUUCCGAGGAUAUACAUGAGGAUCACCCAUGUGCUUCAGCAUCGAAAGAUGCAUGGGUAGAAGGCGGUAGUU [LRO-Excl3-19] (puzzle: Exclusion 3),–,36.6 nM,–,–
UGAAAGUGAGGAUAUGGUGAGUAGUGCCUGAGCGCUGCUCACCAGAAGGCACAUGAGGAUCACCCAUGUAAAUG [Mat - Exclusion 4 - Mod of JL - D20] (puzzle: Exclusion 4),–,38.9 nM,–,–
UUCAUGUGAGGAUAUAGUACUCUUUCUAUUAUUUUUGAGUAUUAGAAGGCACAUGAGGAUCACCCAUGUAGUAC [Ex4 - 3 - 42] (puzzle: Exclusion 4),–,40.8 nM,–,–
"UUUAAUUUUUUUUUUUUACAAGCUUUUUGCUCGUCUUAUACAUGAGGAUCACCCAUGUAGGUGAGAAAUGAAUUAUC [JMF 94] (puzzle: Sensor v3, turn-off variant 2)",26.5 nM,152 nM,29.5 nM,–
"CCCACAAGCUUUUUGCUCGACAUGAGGAUCACCCAUGUUGAAUGGGUUAUAUGUGUGUGAUACAUAUAUAUGUACCU [-24.7, -47.9 kcal, A 26%] (Eterna round: R97, puzzle: Sensor, turn-off variant 1)",–,–,–,apparent KD of MS2 coat protein (input ligand: FMN 200 uM): 23.2 nM; apparent KD of MS2 coat protein (input ligand: none): 23.5 nM
"CUGUACUGAGGAUAUACAUGAGGAUCACCCAUGUGUACCAGCUAGGAAACUAGCAAAAGUAGAAGGCAGUACAG [Mat - Exclusion 3 - Eli Mod - D62] (Eterna round: R97, puzzle: Exclusion 3)",–,–,–,apparent KD of MS2 coat protein (input ligand: FMN 200 uM): 27.6 nM; apparent KD of MS2 coat protein (input ligand: none): 13.3 nM
"GUGGUGGGUUUUCCGAGUGACAUGAGGAUCACCCAUGUGUUAGUUUGAGGUAUCAAGCGAAUGGCUCGUCUUAUGUG [JR_SV3TOV1_Sub046] (puzzle: Sensor v3, turn-off variant 1)",140 nM,21.2 nM,154 nM,–
ACCUUACAUGAGGAUCACCCAUGUCAGGAUAUCUCGGACAGCUGAAAACCAGCCGUCCAGAGAAGGGACGAGGA [Tiaza] (puzzle: Exclusion 1),–,12.8 nM,–,–
"GCAUUACAUGAGGAUCACCCAUGUGAGGAUAUUAGGGUCGCAAGCACGUCUAGCAGACUGAGAAGGCACGGGUG [Eternabot (L1) Solution 45] (Eterna round: R97, puzzle: Exclusion 1)",–,–,–,apparent KD of MS2 coat protein (input ligand: FMN 200 uM): 139 nM; apparent KD of MS2 coat protein (input ligand: none): 192 nM
"CACCGUUAGUGAGGAUAUAGUACAUGAGGAUCACCCAUGUAAUAAAUGAGAAUUUCGGAUGUAUGCUAGAAGGCACAAAUCGGC [Ostricism 51 - Jieux - Exclusion NG 2] (Eterna round: R96, puzzle: Exclusion NG 2)",–,–,–,apparent KD of MS2 coat protein [4]: 47.2 nM
"GCCUUAUCUGUCAGGAUAUACAAUAAAAUAAUUAAGUAGAAGGGACAUGAGGAUCACCCAUGUACAUUACAUUG [alecazam26] (Eterna round: R97, puzzle: Brourd's mod of Exclusion 4)",–,–,–,apparent KD of MS2 coat protein (input ligand: FMN 200 uM): 67.4 nM; apparent KD of MS2 coat protein (input ligand: none): 17.9 nM
"AGAUGUAGAUACCGAUCCUACAUGAGGAUCACCCAUGUAGCUAGACGUGCACGCGAAGCUCGUCAGACUACCAGAAG [salish99_TOv1_r3_084] (puzzle: Sensor v3, turn-off variant 1)",172 nM,144 nM,261 nM,–
"AGAAAGGUAGGAUAUACGAAAAAAAAGGGUAGAAAAAAAACACAUGAGGAUCACCCAUGUAGAAGGACCAAAGA [Mat - Exclusion 2 - Tesla mod - D31] (Eterna round: R96, puzzle: Exclusion 2)",–,–,–,apparent KD of MS2 coat protein [4]: 27.6 nM
"UUUUUAGUGCUUUUUAAGUACAUGAGGAUCACCCAUGUACUUGUCUGGUGGUCCGGACAAGCUUUUUGCUCGUCUAC [Sensor v3 - turn-off variant 1 - 2] (puzzle: Sensor v3, turn-off variant 1)",49.5 nM,30.5 nM,54.3 nM,–
CGGUGCUGAGGAUAUACAUGAGGAUCACCCAUGUGUUCCAGCUAGCGUACUGGCGGAUGUAGAAGGCGGUACUG [JL-ex3-3.40 Brourd mod] (puzzle: Exclusion 3),52.8 nM,13.1 nM,17.7 nM,–
"AAGUCGACGGUGAGGAUAUUGGUUGAACGACAGAUCAAGAAGGCACAUGAGGAUCACCCAUGUGGGUAACGUCG [Brourd's EX4 #38] (Eterna round: R97, puzzle: Brourd's mod of Exclusion 4)",–,–,–,apparent KD of MS2 coat protein (input ligand: FMN 200 uM): 34.5 nM; apparent KD of MS2 coat protein (input ligand: none): 19.1 nM
CCUCUACAUGAGGAUCACCCAUGUGAGGAUAUCUCGGAGCAGCCUAUUAAGGCGCUCCAGAGAAGGCACGUGUA [Dizasoorce] (puzzle: Exclusion 1),–,17.9 nM,–,–
GCGUCGAGUGUGAGGAUAUGCUGGUCAUAAGAUCAGCAGAAGGCACAUGAGGAUCACCCAUGUGAAAACGAUGC [Mat - Exclusion 4 - JL Mod - D69] (puzzle: Brourd's mod of Exclusion 4),73.2 nM,16.3 nM,20.6 nM,–
"GCAAGUUUUUUGUUUUUUAACAUGAGGAUCACCCAUGUAUUUUUAUAGUAUGUGUGAUUAAGAUCUUGUGGUCUUAG [JR_SV3TOV1_Sub101] (puzzle: Sensor v3, turn-off variant 1)",59.1 nM,92.2 nM,62.9 nM,–
"AAUCGGUGAGGAUAUCUAUUGCGGGAGGAAAUUCGCGAAACGGAGAAGGCACAUGAGGAUCACCCAUGUGAAUC [EX4 C.18] (Eterna round: R97, puzzle: Exclusion 4)",–,–,–,apparent KD of MS2 coat protein (input ligand: FMN 200 uM): 25.7 nM; apparent KD of MS2 coat protein (input ligand: none): 18.8 nM
"GGUAGUAUGAGUAGUCCUCAUUGAAGAGAGUGGUAAGAAACAUGAGGAUCACCCAUGUAAGAACAAGCUUUUGCUCA [JR_Sv3TOV2_Sub005] (puzzle: Sensor v3, turn-off variant 2)",191 nM,15.9 nM,266 nM,–
"GUUUAGUGAGGAUAUGUGGCUUCGAUCGUGCGAAGGAGGCUACAGAAGGCACAUGAGGAUCACCCAUGUUCCUC [salish99_ex4_r4_302] (Eterna round: R97, puzzle: Exclusion 4)",–,–,–,apparent KD of MS2 coat protein (input ligand: FMN 200 uM): 401 nM; apparent KD of MS2 coat protein (input ligand: none): 37.1 nM
"CUGAGCAGACGGAGAUCCAACAUGAGGAUCACCCAUGUCUCAAAAGCUUUUUGCUCGUCUUACCCUCCUCUGCUCUC [Ticeisor] (puzzle: Sensor v3, turn-off variant 1)",19.1 nM,40.3 nM,15.1 nM,–
UAUGUUGUUGUGAGGAUAUACUUUGUUUGACCGUAGUAGAAGGCACAUGAGGAUCACCCAUGUAGAUUUUUGGU [JR_BME4_Sub008] (puzzle: Brourd's mod of Exclusion 4),–,9.12 nM,–,–

# — the supplement of paper PMC9170038
